Where two headings read alike, the source gives them in different places. One block for each binder: values may come before it.
What was measured:
[1] = molecular target: T1, human GPRC5D (G-protein coupled receptor family C group 5 member D) (human, UniProt Q9NZD1 1-345); assay: cell-based or functional assay
human GPRC5D nanodisc [2] = molecular target: T2, human GPRC5D nanodisc (human, UniProt Q9NZD1 1-345); assay: SPR, antibody captured by anti-human Fc, GPRC5D-nanodisc injected, 1:1 fit
T2 construct: Bought reagent; also called GPRC5D-nanodiscs (Acro, #GPD-H52D4)
T2 sequence (Q9NZD1 whole entry): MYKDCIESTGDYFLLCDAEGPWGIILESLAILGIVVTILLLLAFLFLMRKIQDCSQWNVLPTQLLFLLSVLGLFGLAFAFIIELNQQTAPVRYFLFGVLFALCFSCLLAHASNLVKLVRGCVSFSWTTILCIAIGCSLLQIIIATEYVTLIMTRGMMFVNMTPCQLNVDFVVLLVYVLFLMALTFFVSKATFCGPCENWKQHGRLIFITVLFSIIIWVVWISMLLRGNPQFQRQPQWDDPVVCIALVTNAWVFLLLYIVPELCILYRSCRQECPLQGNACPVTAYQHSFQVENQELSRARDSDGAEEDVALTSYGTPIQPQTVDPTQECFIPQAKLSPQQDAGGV

human FcγRIIb/c = molecular target: T3, human FcγRIIb/c (human, UniProt P31994 46-217, limits assumed); assay: SPR, receptor captured by anti-his, antibody injected, steady-state fit
T3 construct: His-tagged (captured on anti-his surface); construct not described; also called hu-RIIb/c; FcgRIIb
T3 sequence (looked up): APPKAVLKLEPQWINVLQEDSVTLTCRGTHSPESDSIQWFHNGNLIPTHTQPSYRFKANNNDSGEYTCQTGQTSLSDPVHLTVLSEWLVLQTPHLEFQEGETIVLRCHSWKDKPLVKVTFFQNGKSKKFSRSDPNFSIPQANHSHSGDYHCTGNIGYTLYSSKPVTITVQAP

cynomolgus FcγRIIa = molecular target: T4, cynomolgus FcγRIIa (cynomolgus); assay: as above
T4 construct: His-tagged (captured on anti-his surface); construct not described; also called cy-RIIa; FcgRIIa

human FcγRIIa = molecular target: T5, human FcγRIIa (human, UniProt P12318 36-218, limits assumed); assay: as above
T5 construct: His-tagged (captured on anti-his surface); construct and allele not described; also called hu-RIIa; FcgRIIa
T5 sequence (looked up): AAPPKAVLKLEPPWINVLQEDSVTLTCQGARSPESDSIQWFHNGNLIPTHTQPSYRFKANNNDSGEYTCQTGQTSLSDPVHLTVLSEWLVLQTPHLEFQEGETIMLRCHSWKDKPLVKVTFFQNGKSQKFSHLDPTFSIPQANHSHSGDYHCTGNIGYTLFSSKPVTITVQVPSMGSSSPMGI

cynomolgus FcγRIIb = molecular target: T6, cynomolgus FcγRIIb (cynomolgus); assay: as above
T6 construct: His-tagged (captured on anti-his surface); construct not described; also called cy-RIIb; FcgRIIb

cyno GPRC5D nanodisc = cyno GPRC5D nanodisc (cynomolgus monkey); assay: SPR, antibody captured by anti-human Fc, GPRC5D-nanodisc injected, 1:1 fit
human GPRC5D nanodisc [3] = molecular target: T2, human GPRC5D nanodisc; assay: as above; remark: listed apart in the source
cynomolgus FcγRIII = molecular target: T7, cynomolgus FcγRIII (cynomolgus, UniProt Q8SPW2 17-208, limits assumed); assay: SPR, receptor captured by anti-his, antibody injected, 1:1 fit
T7 construct: His-tagged (captured on anti-his surface); construct not described; also called cy-RIII; FcgRIII
T7 sequence (Q8SPW2 17-208 limits assumed): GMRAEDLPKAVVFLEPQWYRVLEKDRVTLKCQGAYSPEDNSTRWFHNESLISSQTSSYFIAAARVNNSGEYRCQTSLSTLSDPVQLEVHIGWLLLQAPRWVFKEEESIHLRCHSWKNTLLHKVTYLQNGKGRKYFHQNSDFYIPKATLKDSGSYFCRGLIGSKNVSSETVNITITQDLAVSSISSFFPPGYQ

[4] = molecular target: T8, human FcγRIIIa 158V allele (human, UniProt P08637 17-208); assay: as above
T8 construct: His-tagged (captured on anti-his surface); construct not described; The 158V allele differs from the 158F allele at that one position; also called Hu-RIIIa V; Hu-RIIIaV
T8 sequence (P08637 17-208 F176V limits assumed): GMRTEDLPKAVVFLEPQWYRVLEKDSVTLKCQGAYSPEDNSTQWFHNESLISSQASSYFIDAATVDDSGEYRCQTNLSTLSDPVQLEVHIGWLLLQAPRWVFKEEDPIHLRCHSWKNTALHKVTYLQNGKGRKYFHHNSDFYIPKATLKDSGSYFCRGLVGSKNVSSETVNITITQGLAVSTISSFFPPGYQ

cynomolgus FcγRI = molecular target: T9, cynomolgus FcγRI (cynomolgus); assay: as above
T9 construct: His-tagged (captured on anti-his surface); construct not described; also called cy-RI; FcgRI

[5] = molecular target: T10, human FcγRIIIa 158F allele (human, UniProt P08637 17-208); assay: as above
T10 construct: His-tagged (captured on anti-his surface); construct not described; also called Hu-RIIIaF; FcgRIIIa
T10 sequence (P08637 17-208 limits assumed): as the sequence (P08637 17-208 F176V limits assumed) above, with V160F counted along it

human FcγRI = molecular target: T11, human FcγRI (human, UniProt P12314 16-288, limits assumed); assay: as above
T11 construct: His-tagged (captured on anti-his surface); construct not described; also called hu-RI; FcgRI
T11 sequence (P12314 16-288 limits assumed): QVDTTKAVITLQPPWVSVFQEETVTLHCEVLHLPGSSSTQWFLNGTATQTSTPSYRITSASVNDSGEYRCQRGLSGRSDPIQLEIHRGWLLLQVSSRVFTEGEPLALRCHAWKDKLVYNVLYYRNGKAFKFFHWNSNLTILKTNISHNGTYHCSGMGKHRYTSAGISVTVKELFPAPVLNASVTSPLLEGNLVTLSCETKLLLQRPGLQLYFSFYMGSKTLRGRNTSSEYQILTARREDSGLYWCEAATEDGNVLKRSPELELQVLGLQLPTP

[6] = molecular target: T1, human GPRC5D (G-protein coupled …); assay: cell-based or functional assay; remark: listed apart in the source
[7] = molecular target: T1, human GPRC5D (G-protein coupled …); assay: flow cytometry on MM1.R cells
[8] = molecular target: T1, human GPRC5D (G-protein coupled …); assay: flow cytometry on H929 cells

T1 sequence (Q9NZD1 whole entry): as the sequence (Q9NZD1 whole entry) above

ADCC EC50 (nM), CD138+ MM patient plasma cells, Sample 1 [1]: 0.007 nM
ADCC EC50 (nM), CD138+ MM patient plasma cells, Sample 2 [1]: 0.09 nM
ADCC EC50 (nM), CD138+ MM patient plasma cells, Sample 6 [1]: 0.04 nM
ADCC EC50 (nM), CD138+ MM patient plasma cells, Sample 17 [1]: 0.64 nM
CDC EC50 (nM), CD138+ MM patient plasma cells, Sample 6 [1]: 40.5 nM
CDC EC50 (nM), CD138+ MM patient plasma cells, Sample 17 [1]: 35.5 nM
Kd (human GPRC5D nanodisc [2]): 84 nM
koff (human GPRC5D nanodisc [2]): 0.00148 s⁻¹
kon (human GPRC5D nanodisc [2]): 18000 M⁻¹ s⁻¹
Fold increase in binding (vs wt IgG1 control) (human FcγRIIb/c): 1 fold
Kd (human FcγRIIb/c): 11600 nM
Fold increase in binding (vs wt IgG1 control) (cynomolgus FcγRIIa): 0.9 fold
Kd (cynomolgus FcγRIIa): 8820 nM
Fold increase in binding (vs wt IgG1 control) (human FcγRIIa): 2.5 fold
Kd (human FcγRIIa): 3710 nM
Fold increase in binding (vs wt IgG1 control) (cynomolgus FcγRIIb): 0.8 fold
Kd (cynomolgus FcγRIIb): 5400 nM
Kd (cyno GPRC5D nanodisc): 1880 nM
koff (cyno GPRC5D nanodisc): 0.0179 s⁻¹
kon (cyno GPRC5D nanodisc): 9520 M⁻¹ s⁻¹
Kd (human GPRC5D nanodisc [3]): 77 nM
koff (human GPRC5D nanodisc [3]): 0.00169 s⁻¹
kon (human GPRC5D nanodisc [3]): 22000 M⁻¹ s⁻¹
Fold increase in binding (vs wt IgG1 control) (cynomolgus FcγRIII): 33.2 fold
Kd (cynomolgus FcγRIII): 11.9 nM
koff (cynomolgus FcγRIII): 0.034 s⁻¹
kon (cynomolgus FcγRIII): 2.86e+06 M⁻¹ s⁻¹
Fold increase in binding (vs wt IgG1 control) [4]: 111 fold
Kd [4]: 8.1 nM
koff [4]: 0.0232 s⁻¹
kon [4]: 2.85e+06 M⁻¹ s⁻¹
Fold increase in binding (vs wt IgG1 control) (cynomolgus FcγRI): 1.5 fold
Kd (cynomolgus FcγRI): 1 nM
koff (cynomolgus FcγRI): 0.000659 s⁻¹
kon (cynomolgus FcγRI): 647000 M⁻¹ s⁻¹
Fold increase in binding (vs wt IgG1 control) [5]: 50.7 fold
Kd [5]: 75 nM
koff [5]: 0.167 s⁻¹
kon [5]: 2.24e+06 M⁻¹ s⁻¹
Fold increase in binding (vs wt IgG1 control) (human FcγRI): 2.2 fold
Kd (human FcγRI): 1.3 nM
koff (human FcγRI): 0.000738 s⁻¹
kon (human FcγRI): 567000 M⁻¹ s⁻¹
ADCC EC50, AMO-1 cells, primary healthy donor human NK cells [6]: 1.2 nM
ADCC EC50, H929 cells, primary healthy donor human NK cells [6]: 0.04 nM
ADCC EC50, MM.1R cells, primary healthy donor human NK cells [6]: 0.005 nM
ADCP EC50, H929 cells, M1-macrophages [6]: 0.05 nM
ADCP EC50, MM.1R cells, M1-macrophages [6]: 0.05 nM
CDC EC50, AMO-1 cells, CellTiter-Glo, 40% human serum [6]: 35.3 nM
CDC EC50, JIM-3 cells, CellTiter-Glo, 40% human serum [6]: 13.1 nM
CDC EC50, MM.1R cells, CellTiter-Glo, 40% human serum [6]: 8.77 nM
B1: GC5B1552.AFU (antibody, human IgG1, kappa)
chain: DKTHTCPPCPAPELLGGPSVFLFPPKPEDTLMISRTPEVTCVVVDVSHEDPEVKFNWYVDGVEVHNAKTKPREEQYNSTYRVVSVLTVLHQDWLNGKEYKCKVSNKALPAPIEKTISKAKGQPREPQVYTLPPSREEMTKNQVSLWCLVKGFYPSDIAVEWESNGQPENNYKTTPPVLDSDGSFFLYSKLTVDKSRWQQGNVFSCSVMHEALHNHYRQKSLSLSPGK
heavy: not shown
light: DIQMTQSPSSLSASVGDRVTITCRASQGIRNDLGWYQQKPGKAPKRLIYAASSLQSGVPSRFSGSGSGTEFTLTISSLQPEDFATYYCLQRNTYPLTFGGGTKVEIKRTVAAPSVFIFPPSDEQLKSGTASVVCLLNNFYPREAKVQWKVDNALQSGNSQESVTEQDSKDSTYSLSSTLTLSKADYEKHKVYACEVTHQGLSSPVTKSFNRGEC
notes: expressed in a FUT8 knockout CHO host, so the Fc glycan is afucosylated; also called GC5B1552.AFU.003; GC5B1552.AFU.001

EC50 [7]: 3.2 nM
EC50 [8]: 1.3 nM
B2: GC5B1552 (antibody)
chain: B1 chain
heavy: not shown
light: B1 light
notes: Monovalent JAWA (K248E/T437R) antibody as named without the .AFU suffix
